In paper PMC7177284, “A Coil-to-Helix Transition Serves as a Binding Motif for hSNF5 and BAF155 Interaction” (International Journal of Molecular Sciences, 2020):

How the values were obtained:
[1] = target: BAF155^SWIRM (SWIRM domain of human BAF155, residues 449–546) (human) (UniProt Q92922); test: ITC; VP-ITC, 25 °C, 25 mM sodium phosphate, 100 mM NaCl, 1 mM TCEP, pH 7.0; typically 160 µM hSNF5 injected into 10 µM BAF155^SWIRM or mutant in the cell; single-site model
[2] = target: T1, BAF155^SWIRM N476A/N479A mutant (human, UniProt Q92922 449-546, N476A | N479A); test: as above; conditions: both partners purified
T1 construct: human BAF155, SWIRM domain, residues 449-546, N476A and N479A; PDB 6KZ7 holds the wild-type parent of the same limits; source: E. coli BL21 (DE3), purified (Ni-NTA, TEV cleavage, Superdex 200); not shown: His6, N-terminal, cleaved
T1 sequence (Q92922 449-546 N476A/N479A): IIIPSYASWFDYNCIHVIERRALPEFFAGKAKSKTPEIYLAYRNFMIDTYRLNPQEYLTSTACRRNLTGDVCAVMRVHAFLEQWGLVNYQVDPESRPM

[3] = target: T2, BAF155^SWIRM (SWIRM domain of human BAF155, residues 449–546) (human, UniProt Q92922 449-546); test: as above; conditions: both partners purified
T2 construct: human BAF155, SWIRM domain, residues 449-546; 15N- or 13C,15N-labelled for the NMR experiments; also called BAF155/SRG3; source: E. coli BL21 (DE3), purified (Ni-NTA, TEV cleavage, Superdex 200); not shown: His6, N-terminal, cleaved
T2 sequence (Q92922 449-546): as the sequence (Q92922 449-546 N476A/N479A) above, with A28N, A31N counted along it

[4] = target: T2, BAF155^SWIRM (SWIRM domain of human …); test: as above; conditions: both partners purified; remark: listed apart in the source
[5] = target: T2, BAF155^SWIRM (SWIRM domain of human …); test: SEC-MALS; Wyatt WTC-030S5 column, 0.5 mL/min, 10 mM HEPES pH 7.0, 100 mM NaCl, 2 mM DTT; hSNF5^171–258 0.2 mM and BAF155^SWIRM 0.3 mM, individually or together; conditions: both partners purified

BAF155^SWIRM (SWIRM domain of human BAF155, residues 449–546) (human), sequence (Q92922 449-546): as the sequence (Q92922 449-546 N476A/N479A) above, with A28N, A31N counted along it

| Molecule | Kd [3] [µM] | dH [3] [kJ/mol] | further results |
| --- | --- | --- | --- |
| hSNF5^SFH1/171–253 (chimeric mutant with the N-terminal tail region from the yeast protein SFH1) (from UniProt Q12824 185-253) (domain or fragment) | – | – | Kd [1]: 0.48 µM; dH [1]: -56.1 kJ/mol |
| hSNF5^171–253 (domain or fragment, human, UniProt Q12824 171-253, looked up, source: E. coli BL21 (DE3), purified (Ni-NTA, TEV cleavage, Superdex 200); not shown: His6, N-terminal, cleaved) HDPAVIHENASQPEVLVPIRLDMEIDGQKLRDAFTWNMNEKLMTPEMFSEILCDDLDLNPLTFVPAIASAIRQQIESYPTDSI | 0.11 ± 0.02 | -82.4 ± 1.26 | Kd [2]: 0.14 ± 0.03 µM; dH [2]: -74.1 ± 2.93 kJ/mol; stoichiometry N [4]: 1 |
| hSNF5^171–258 (N- and C-terminal elongated hSNF5 RPT1 domain) (domain or fragment, human, UniProt Q12824 171-258, looked up, 15N- or 13C,15N-labelled for the NMR experiments; modified pET21b vector; also called human SNF5; SNF5/INI1/BAF47; source: E. coli BL21 (DE3), purified (Ni-NTA, TEV cleavage, Superdex 200); not shown: His6, N-terminal, cleaved) HDPAVIHENASQPEVLVPIRLDMEIDGQKLRDAFTWNMNEKLMTPEMFSEILCDDLDLNPLTFVPAIASAIRQQIESYPTDSILEDQS | – | – | stoichiometry N [5]: 1 |
| hSNF5^186–253 (domain or fragment, human, UniProt Q12824 186-253, looked up, human SNF5 (hSNF5), residues 186-253; source: E. coli BL21 (DE3), purified (Ni-NTA, TEV cleavage, Superdex 200); not shown: His6, N-terminal, cleaved) LVPIRLDMEIDGQKLRDAFTWNMNEKLMTPEMFSEILCDDLDLNPLTFVPAIASAIRQQIESYPTDSI | 0.76 ± 0.08 | -66.9 ± 1.26 | – |

Further lines, with some results ahead:

| Kd [3] [µM] | dH [3] [kJ/mol] | Molecule | further results |
| --- | --- | --- | --- |
| 0.37 ± 0.1 | -46.9 ± 1.67 | hSNF5^171–253 with the E184A mutation (domain or fragment, human, UniProt Q12824 171-253, looked up, source: E. coli BL21 (DE3), purified (Ni-NTA, TEV cleavage, Superdex 200); not shown: His6, N-terminal, cleaved) HDPAVIHENASQPAVLVPIRLDMEIDGQKLRDAFTWNMNEKLMTPEMFSEILCDDLDLNPLTFVPAIASAIRQQIESYPTDSI | – |
| 0.11 ± 0.03 | -66.1 ± 2.09 | hSNF5^174–253 (domain or fragment, human, UniProt Q12824 174-253, looked up, human SNF5 (hSNF5), residues 174-253; source: E. coli BL21 (DE3), purified (Ni-NTA, TEV cleavage, Superdex 200); not shown: His6, N-terminal, cleaved) AVIHENASQPEVLVPIRLDMEIDGQKLRDAFTWNMNEKLMTPEMFSEILCDDLDLNPLTFVPAIASAIRQQIESYPTDSI | – |
| 0.3 ± 0.07 | -54 ± 1.67 | hSNF5^181–253 (domain or fragment, human, UniProt Q12824 181-253, looked up, human SNF5 (hSNF5), residues 181-253; source: E. coli BL21 (DE3), purified (Ni-NTA, TEV cleavage, Superdex 200); not shown: His6, N-terminal, cleaved) SQPEVLVPIRLDMEIDGQKLRDAFTWNMNEKLMTPEMFSEILCDDLDLNPLTFVPAIASAIRQQIESYPTDSI | – |
| 0.3 ± 0.05 | -87.9 ± 2.51 | hSNF5^179–253 (domain or fragment, human, UniProt Q12824 179-253, looked up, human SNF5 (hSNF5), residues 179-253; source: E. coli BL21 (DE3), purified (Ni-NTA, TEV cleavage, Superdex 200); not shown: His6, N-terminal, cleaved) NASQPEVLVPIRLDMEIDGQKLRDAFTWNMNEKLMTPEMFSEILCDDLDLNPLTFVPAIASAIRQQIESYPTDSI | – |
| 0.29 ± 0.08 | -78.2 ± 3.35 | hSNF5^183–253 (domain or fragment, human, UniProt Q12824 183-253, looked up, human SNF5 (hSNF5), residues 183-253; also called whole αN helix-deletion mutant; source: E. coli BL21 (DE3), purified (Ni-NTA, TEV cleavage, Superdex 200); not shown: His6, N-terminal, cleaved) PEVLVPIRLDMEIDGQKLRDAFTWNMNEKLMTPEMFSEILCDDLDLNPLTFVPAIASAIRQQIESYPTDSI | – |
